# Experimental data as given in the supplement of paper PMC9170038.
# Experiments:
# MS2 coat protein [1] = test: apparent KD of MS2 coat protein, switch ON state; designed switch direction (-1 OFF switch, 1 ON switch): -1; higher = weaker reporter binding; conditions: FMN input: 0 or 200 uM; Eterna round: R93 (includes R88 designs)
# How it was run: (§1)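 Values are apparent KD, taken as the median for each design of fits to normalised binding curves from individual clusters. The designed RNA switches were transcribed on-chip from Illumina sequencing clusters and exposed to SNAP-549-labelled MS2 coat protein at twofold increasing amounts from 0.7 or 1.5 nM to 3 µM. Titration used 100 mM Tris-HCl pH 7.5, 80 mM KCl and 4 mM MgCl2, without or with constant ligand.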
# MS2 coat protein [2] = test: apparent KD of MS2 coat protein, switch OFF state (with FMN for OFF switches, without FMN for ON switches); designed switch direction (-1 OFF switch, 1 ON switch): -1; higher = weaker reporter binding; conditions: FMN input: 0 or 200 uM; Eterna round: R93 (includes R88 designs)
# How it was run: as §1
Sequence,apparent KD of MS2 coat protein (MS2 coat protein [1]) [nM],apparent KD of MS2 coat protein (MS2 coat protein [2]) [nM]
GGAAAACAUGAGGAUCACCCAUGUGAGGAUAUCGAUGUCCAAAAGAAAGUGCGGGACUCGAGAAGGCACUUGGA [salish99-ex1-36],56.3,45.8
AAAAAGUGAGGAUAUACGUUGAAAAAAAAAAAAAAAAAGCGGUAGAAGGCACAUGAGGAUCACCCAUGUAAAAA [Ex4 Malc#4],32.7,22.5
"AAAAAACAUGAGGAUCACCCAUGUAAGGAUAUGCUCGUGCGAAAGCACAAAAAAAAGAGCAGAAGGUACAAAAA [66%, Wbt, 38]",19.8,32.3
AAAACAAAAGGAUAUAAAAACAAAAGUCAGGAUAUAGGAAACUAGAAGGGACAUGAGGAUCACCCAUGUAAAAC [Meechl Ex4 R2 m3],55.9,44.5
GGGUCACAUGAGGAUCACCCAUGUAAGGAUAUGCUAGGGAUGGAAACCAUUCCGCAACGCAGAAGGUACUAAAG [Janelle Amethyst 18 Mod 12 - Jieux - Exclusion 1],50.4,105
AAUAACAGAGGAUAUGCGAAAAUAAGCGGAAACGCAAAGGGACAUGAGGAUCACCCAUGUAGAAGGCUGGAUAA [Tetraloop... 61% 1],34.4,29.5
CUCUAGUAAGGAUAUCGAAGAAAAGAAAAGAAAGAAAAGAACGAGAAGGUACAUGAGGAUCACCCAUGUAAGAA [EteRNA is fun!],34.5,19
AAUAUGUUAGGAUAUGCUGCUCGUCACAAAAGUGAUGAGUAGCAGAAGGAACAUGAGGAUCACCCAUGUAAAGA [JL eternac mod 12],31.1,39
UCACACCUAGGAUAUACAUGAGGAUCACCCAUGUGGCACUCCGCAGGCAGUGUUCCCAGUAGAAGGAGGACACG [Ricere],27.8,22.4
GAGAGGGCAGGAUAUGCGGAGAGAGAGAGAGAGAGAGAGAGACAUGAGGAUCACCCAUGUAGAAGGGCCGAGAG [salish99-ex2-09],62.3,28.1
AGGAAACAUGAGGAUCACCCAUGUGAGGAUAUCAGAAAGAAAAGAAAAGAAAGAAGAAUGAGAAGGCACAAGAA [Hotepsekhemwy],26,40.8
AGGAUGUCAGGAUAUGUGUAAAGAAUAAAACAAAUAACAACACAGAAGGGACAUGAGGAUCACCCAUGUUAAAA [May 36],44.9,54
AACAGUACAGGAUAUACAUGAGGAUCACCCAUGUGAGAAUUAAAAGGCGUACCUAAAUGUAGAAGGGUACUGGA [JL Maslow Revisted mod 19],56.3,61.8
AAAAAGUGAGGAUAUACAUGAGGAUCACCCAUGUGAAAGUCGAAAAAAAAGACAAAAAGUAGAAGGCACAAAAA [Fiskers Exclusion 3 D2],22.7,30.3
AAGAAGUGAGGAUAUCCAAAAGAAAAGAAAAGAAAAGAAAAGGAGAAGGCACAUGAGGAUCACCCAUGUAAGAA [Ankhkaenre Psamtik III],26.3,28.4
AAAAAAAAAGGAUAUACAGGAGGUAAGGUCGGACAAAAAAGACAUGAGGAUCACCCAUGUAGAAGGUUUAAAAA [Excls2-X],39.4,35.1
UCCGAACAUGAGGAUCACCCAUGUCAGGAUAUACACCCAGCAUGGAAGCCAUGCUCAAGUAGAAGGGACGGGUG [Inxeus],34.9,34.9

Sequence,apparent KD of MS2 coat protein (MS2 coat protein [1]) [nM],apparent KD of MS2 coat protein (MS2 coat protein [2]) [nM]
AAGGGACAUGAGGAUCACCCAUGUGAGGAUAUGACGUAAAGAAAGAAAGAAGAAAUCGUCAGAAGGCACACCAA [Mat - Exclusion 1 - Eli mod - D70],70.6,118
AAAAAUGGAGGAUAUACAUGAGGAUCACCCAUGUGAAACAAAACAAAAAACAAAAAAAGUAGAAGGCCAAAAAA [Gilly Gone Silly 3 - Jieux - Exclusion 3],31.2,40.1
AAAAAGGCAGGAUAUACAUGAGGAUCACCCAUGUAAAGAAAGAAAGAAGAAAGGGAAAGUAGAAGGGCCAAAAA [Ex3 sub 1],34.4,41.2
AAAUGACAUGAGGAUCACCCAUGUCAGGAUAUGACUUGAAAAAUAAAAUAAAAACAUGUCAGAAGGGACAUGAA [Design 47: Sub-opt E],16.5,17.6
AGAAAACAUGAGGAUCACCCAUGUAAGGAUAUGCUAAGGGUGGCUUCGGCCACCCAAUGCAGAAGGUACAAAUA [Excalibur],20.5,40.7
AAAAAUGGAGGAUAUACAUGAGGAUCACCCAUGUGUAACUAUACUAAGCACAAAAAAAGUAGAAGGCCAAAAAA [Gilly Gone Silly 9 - Jieux - Exclusion 3],53.5,57.4
CCUAUGUCAGGAUAUCAGUAGUAAAAAAAAAAAAUUACUACUGAGAAGGGACAUGAGGAUCACCCAUGUUCAAA [EX4 313: Super Stable 13],42.4,66.4
AAAAGGUGAGGAUAUAGGAAAAUAAAAGAAAAUAAAAGAAACUAGAAGGCACAUGAGGAUCACCCAUGUAAUAA [LROPPY Exclusion 4 - v03_deltaG=3.54 break up the As mixed],28.7,23.6
AAAAAGUGAGGAUAUUCGGAAGGGAAAGCGCAAACCCAACCGAAGAAGGCACAUGAGGAUCACCCAUGUAAAAA [Ecls4-III 65% - Early G segment 1],30.6,35.2
AUAAACUGAGGAUAUACAUGAGGAUCACCCAUGUAAAAAAAAAAAAGUUCCUCAAAAAGUAGAAGGCAGAAUAA [JR_Exc003_Sub013],13.2,19.4
AAAAAGUAAGGAUAUCUGGAUAGGAAAAAGAAAACCUAUCCAGAGAAGGUACAUGAGGAUCACCCAUGUAAAAA [Opal 30],20.8,14.1
AAAAAACAUGAGGAUCACCCAUGUGAGGAUAUCGGUAGUGAGGCUAUAGUGUCAGUAAUGAGAAGGCACAUAAA [Brourd 613 Mod 11 - Jieux - Exclusion 1],24.6,29.7
CCUGUGUGAGGAUAUGGUAAAAAAAAAAAAAAAUAGCUCCUCCAGAAGGCACAUGAGGAUCACCCAUGUCGUGG [Jolly's Folly 16 - Jieux - Exclusion 4],37.6,73.9
CAAAGGUGAGGAUAUACGAGGAUAUGACGAAAGUCAUAAAAACAUGAGGAUCACCCAUGUAGAAGGCACCACAA [E2 64% 5],27.8,32.8
"AAAAAACAUGAGGAUCACCCAUGUGAGGAUAUGAACGAAAAUAAAUAAAAAUAAAAGUUCAGAAGGCACAAAAA [66%, Wbt, 10]",42.2,47.9
AACAUACAUGAGGAUCACCCAUGUCAGGAUAUGCCGGGUUAGAGCCAACUGAAAAACCGUAGAAGGGACGAAAA [Bilbo Confounded 8 - Jieux - Exclusion 1],66.9,79.5
